From paper PMC4199108 (Nature Communications, 2014)
Residues, ends and D or L forms follow the SMILES beside them.

What was measured:
[1] = biological target: T1, phosphorylated rhodopsin (Meta II) (Bos taurus, UniProt P02699); assay: Extra Meta II assay: stabilization of Meta II by peptide, UV-visible absorption; type: binding, bovine; details: 10 μM ROS-P, 100 mM HEPES pH 8.0, 0 °C, 380-nm absorbance
[2] = biological target: phosphorylated opsin (OpsP) (Bos taurus, UniProt P02699); type: binding, bovine; details: 1 μM arrestin A366NBD + 2 μM OpsP, 50 mM HEPES pH 7.0, 22 °C
Chain of phosphorylated opsin (OpsP) (P02699 whole entry): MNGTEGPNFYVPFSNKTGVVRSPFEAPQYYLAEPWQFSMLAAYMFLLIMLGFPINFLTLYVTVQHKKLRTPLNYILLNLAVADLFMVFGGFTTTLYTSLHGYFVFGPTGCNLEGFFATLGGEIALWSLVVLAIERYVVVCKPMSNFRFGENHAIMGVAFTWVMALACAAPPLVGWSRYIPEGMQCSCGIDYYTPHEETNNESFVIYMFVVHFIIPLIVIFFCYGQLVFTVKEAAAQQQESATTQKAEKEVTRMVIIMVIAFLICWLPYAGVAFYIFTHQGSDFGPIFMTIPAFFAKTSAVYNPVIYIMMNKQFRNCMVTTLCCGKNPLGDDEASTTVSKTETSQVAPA

[3] = biological target: phosphorylated opsin (OpsP) in membranes (bovine, UniProt P02699 1-348, phosphorylated by native rhodopsin kinase (sites not given)); assay: co-sedimentation
Chain of phosphorylated opsin (OpsP) in membranes (P02699 whole entry): as above

[4] = biological target: T1, phosphorylated rhodopsin (Meta II); details: 380-nm-absorbing Meta II; cited from earlier work

T1 sequence (P02699 whole entry): as above

Molecule	Kd [3]	also measured
CC[C@H](C)[C@H](NC(=O)[C@H](CC(=O)O)NC(=O)[C@H](CCC(=O)O)NC(=O)[C@H](CCC(N)=O)NC(=O)CNC(=O)[C@@H](N)Cc1ccc(O)cc1)C(=O)N[C@@H](CC(=O)O)C(=O)N[C@H](C(=O)N[C@@H](CCSC)C(=O)NCC(=O)N[C@@H](CC(C)C)C(=O)O)C(C)C [ArrFL-1] (H-YGQEDIDVMGL-OH)	–	Stabilization of Meta II / Extra Meta II formation (in words) [1]: stabilized the 380-nm-absorbing Meta II species over Meta I
QRMHLRQYELL [GsαCT]	–	Competition for arrestin binding to phosphorylated opsin (in words) [2]: showed no competition for arrestin binding to phosphorylated opsin; Stabilization of Meta II / Extra Meta II formation (in words) [1]: did not stabilize Meta II
YGREDLDVLGL [ArrFL-2/3, finger loop peptide of beta-arrestin-1 and beta-arrestin-2]	2.4 mM	–
arrestin: full-length rod photoreceptor arrestin (protein, NBD label on the single cysteine A366C) MKANKPAPNHVIFKKISRDKSVTIYLGKRDYIDHVERVEPVDGVVLVDPELVKGKRVYVSLTAAFRYGQEDIDVMGLSFRRDLYFSQVQVFPPVGASGATTRLQESLIKKLGANTYPFLLTFPDYLPSSVMLQPAPQDVGKSAGVDFEIKAFATHSTDVEEDKIPKKSSVRLLIRKVQHAPRDMGPQPRAEASFQFFMSDKPLRLAVSLSKEIYYHGEPIPVTVAVTNSTEKTVKKIKVLVEQVTNVVLYSSDYYIKTVAAEEAQEKVPPNSSLTKTLTLVPLLANNRERRGIALDGKIKHEDTNLASSTIIKEGIDKTVMGILVSYQIKVKLTVSGLLGELTSSEVATEVPFRLMHPQPEDPDTCKESFQDENFVFEEFARQNLKDAGEYKEEKTDQEAAMDE	–	Stabilization of Meta II species over Meta I [4]: stabilized the 380-nm-absorbing Meta II species over Meta I
IKENLKDCGLF [GtαCT, wild-type Gtα C-terminal peptide]	0.88 mM	–
ILENLKDCGLF [GtαCT-HA, high-affinity version of the Gtα C-terminal peptide]	0.32 mM	–
YGQEDIDVMGL [ArrFL-1, peptide analogue of the finger loop of rod photoreceptor arrestin]	1.7 mM	–
